In article PMC9463536 (The Journal of Biological Chemistry, 2022):

Molecular target: T1, human claudin-4, biotinylated with NHS-PEG4-biotin (human, UniProt O14493 1-209)
T1 construct: also called biotinylated claudin-4
T1 sequence: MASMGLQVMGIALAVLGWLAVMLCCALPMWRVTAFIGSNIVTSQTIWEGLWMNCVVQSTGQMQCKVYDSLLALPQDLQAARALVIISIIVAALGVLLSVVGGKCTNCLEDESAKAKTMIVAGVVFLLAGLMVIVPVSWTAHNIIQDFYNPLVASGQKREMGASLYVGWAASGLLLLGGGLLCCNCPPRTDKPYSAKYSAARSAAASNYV
Test: BLI
Settings: both partners purified

B1: cCpE^1 (cCpE^[change]) (domain or fragment)
chain: KEILDLAAATERLNLTDALNSNPAGNLYDWRSSNSYPWTQKLNLHLTITATGQKYRILASKIVDFNIYSNNFNNLVKLEQSLGDGVKDHYVDISLDAGQYVLVMKANSSYSGNYPYSILFQKF
Binder B1 has a Kd of about 3 nM.
